From the nanobody polyreactivity screen of Harvey et al. (2022)

Assay: yeast display, Sf9 membrane polyspecificity reagent, FACS + sequencing; frameworks hold sequencing errors
Method in brief: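 Using colony PCR, genes from sorted yeast display clones were amplified, then sequenced on MiSeq at 2 × 250 and filtered by CDR length. The clones had been stained with 10% biotinylated, detergent-solubilized Sf9 membrane reagent for 1 hour at 4 °C and sorted by FACS into low and high (top ~1%) gates on anti-HA and streptavidin fluorescence. Polyreactivity labels come from the gate of origin.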

Sequence | polyreactivity (PSR sort gate)
QVHLVESGGGLGKAGGSLRLSSAASGRTFQYYTMGWYRQAPGKARELVAAIRRGGSTYYADSVKGRFTISRDNAKNTVYLQMYSLKPEDTAVYYCAALYAYSLTARGMEYWGQGTQVTVSS | high polyreactivity
QVHLVESGGGLGQAGGSLRLSGAASGFIFGDYAMGWYRQAPGKERELVADINWTGGSTYYADSVKGRFTISRDNANNTVYLQMKSLKPEDTEVYYCDKDDYAFLITWVDYWGQGTQVTVSS | low polyreactivity
QVHLVESGGGLVEAGGSLRLSCAASGRIFQGYAMGWYRQAPGKERELVAAITRSGGSTYYADSVKGRFTISRDNAKNTVYLQMNSLKPEDTAVYYCAASHYGLLEYWGQGTQVTVSS | low polyreactivity
QVHLVESGGGLVHAGGSLRLSCAASGRSFTFYDMGWYRQAPGKERELVAAITQDSGSSTYYADSVKGRFTISRDNAKNTVYLQMNSLKPEDTAVYYCNADYPGFSSQNDYWGQGTHVTVSS | low polyreactivity
QVHLVESGGGLVKAGGSLGLSCSPSGSTLSFNAMGWYRQAPGKERELVAGITYSGGSTYYADSVKGRFTISRDNAKNTFYLLMNSLKPEDTAVYYCNKASGVYYGHLDYWGQGTQVTVSS | low polyreactivity
QVHLVESGGGLVKAGGSLRLSCAASGISFGSNVMGLYRQAPGKERELVAAINYGGGSTYYADSVKGRFTISRDNAKNTVYLQMNSLKPEDTAVYYCAARGSRVYRYDYWGQGTQVTVSS | low polyreactivity
QVHLVESGGGLVKAGGSLRLSCAASGRTFYKYAKGWYRQAPGKEREFVADISSRGGSTYYEDSVKGRFTISRDNAKNTLYLQMNSLKPEDTAVYYCNSRRNSVRYNYWGQGTQVTVSS | high polyreactivity
QVHLVESGGGLVKAGGSLRLSCGASGSTFERYAMGWYRQAPGKERELVAAINWSGGGTYYADSVKGRFTSSRDNAKNTVYLQMNSLNPEDTAVYYCAGDSGTVVFSLWWYEYYYWGQATQVTVSS | low polyreactivity
QVHLVESGGGLVKAGGSLRLSCPASGFIFTLYAMGWYRQPPGKERELVASIRGSGGNTYYADSVKGRFTISRDNAKNTVYLQMNSLKPEDTAVYYCAAGYPYYYWTPYYYWGQGTQVTVSS | high polyreactivity
QVHLVESGGGLVLAGGSLRLSFAASGSTFDSYAMRCYRQQPGKQREFVAVINSGGSTNYADSVNGRFTISRDYSKNTVYLQMNSLKPEDTAVYYCAAEERYRWHYGGWGYWYDYWGQGTQVTVSS | low polyreactivity
QVHLVESGGGLVMAVGSLRLSCAASGFTFVGYAMGWYRQAPGKERELVATITRVGSTNYADSVKGRFTISRDNAKNTVYLQMNSLKPEDTAVYYCNTRRVYGHGKSPYDSWGQGTQVTVSS | low polyreactivity
QVHLVESGGGLVQAGGILRLSCAASGFTFIHYGMGWYRQAPGKERELVAAISSRGGRTYYADSVKGRFTISRDNAKNTVYLQMNSLKPEDTAVYYCNRDYAVISYGEYDSWGQGTEVTVSS | high polyreactivity
QVHLVESGGGLVQAGGILRLSCAASGRTFRYYAMGWYRQAPGKERELVAAISSGGSTNYADSVKGRFTISRDNAKNTVYLQMNSLKPEDSAVYYCADLWSGNKFNYWGQGTQVTVSS | low polyreactivity
QVHLVESGGGLVQAGGILRLSCAASGSTFGYYAMGWYRQAPGKERELVAAITWSGDSTYADSVKGRFTISRDNAKNTVYLQMNSLKPEDTAVYYCARRGFLGHWPRPSYDYWGQGTQVTVSS | low polyreactivity
QVHLVESGGGLVQAGGRLRLSCAASALTYAYYAMGRYREAPRKERELVAAITTGGTTNYADSVKGRFTISRDNAKNTVYLQMNSLKTEDTAVYYCARLYRSGYEYWGQGTQVTVSS | low polyreactivity
QVHLVESGGGLVQAGGRLRLSCAASGFIFWSNAMRWYRQAPGKERELVAAITWNGGDTYYADSVKGRFTISRDNAKNTVYLQMNSLKPEDTAVFYCAAVPSRRARYDYWGQGTQVTVSS | low polyreactivity
QVHLVESGGGLVQAGGRLRLSCAASGGTFYYIAMGWYRQAPGKERELVAAISWSGVSTSYADTVKGRFTISRDNEKNTVYLQMNSLKPEDTAVYYCAAGPFYYTGFEGDYWGQGTQVTVSS | high polyreactivity
QVHLVESGGGLVQAGGRLRLSCAASGSIFDDYAMGWYRQAPGKERELVAAITSGGSTYYADSVKGRFTISRDNAKNNVYLEMNSLKPEDTAVYYRATRYHWSSSFAPVGAYGYWGQGSQVTVSS | low polyreactivity
QVHLVESGGGLVQAGGSHRLSCAASGFIFKVNAMGWYRQAPGKERELVAAITGSGGSTYYADSVKGRFTISRDNAKNTVFLQMISLKPEDTAVYYCISLYDGYSTRLGFWGHGTQVTVSS | high polyreactivity
QVHLVESGGGLVQAGGSHRLSCAAYGRIFRANAKGWYRQAPGKERELVASITYSGGSTYYADSVKGRFTISRDNAKNTVYLQMNSLKPEDTAVYYCARAGISSGGYYYWGQGTQVTVSS | low polyreactivity
QVHLVESGGGLVQAGGSIRLSCAASGLIFYPYAMGWYRKAHGKEREFVAAITWSGGSTRYADSVKGRFTISLDNAKNTVYLQMNSLKPEDTAVYYCAARYIWWYDYTYTGLDYWGQGTQVSVSS | high polyreactivity
QVHLVESGGGLVQAGGSLLISCSASGSTFGTNAMGWYRQAPGKERDLVASITWSGGNTNYADSVKGRFTISRDNAKNTVYLQKKSMKPADTAVYYCAAEVFISYGVGGYYSDMDYWGQVTQVTVSS | low polyreactivity

Sequence | polyreactivity (PSR sort gate)
QVHLVESGGGLVQAGGSLLLSCAASGSIFYFYAMGWYRQAPGKERELVAGITWRGGRTYYADSVKGRFTISRDNAKNTVDLQMIILKPEDTAVYYCAARFWSTYGYDSWGQGTQVTVSS | high polyreactivity
QVHLVESGGGLVQAGGSLLLSCDASGSIIKQYAMGWYRQAPGKERELVASIRWRDGSTYYADSVKGRFTISRDNAMNTVYLQMNSLKPEDTAVYYCAAYYCVWRYKYYYWGQGTQVTVSS | high polyreactivity
QVHLVESGGGLVQAGGSLLLSCSASGSIFTFNAMGWYRQAPGKERELVAAISSGGNTYYADSEKGRFTISRDNAKNSVYLQMNSLKPEDTAVYYCAAVRRTDGDGKYYYWGQGTEVTVSS | high polyreactivity
QVHLVESGGGLVQAGGSLPLSCAATGRTFVYYAMGWYIQAPGKERELVAAITWTGGSTYYADSVKGRFTISRDTAKNTVYLHMNSMKPEDTAVYYFKAAVFRYRNEYDYWGQGTQVTVSS | low polyreactivity
QVHLVESGGGLVQAGGSLRFSCAASGSTFDDYAMGWYRQAPGKERELVAAISRSDGSTSYADSVKGRFTISRDNAKNTVYLQMNSLKPEDTAVYYCAADPVFKDDLWPVRVRVDYWGQGTQVTVSS | low polyreactivity
QVHLVESGGGLVQAGGSLRISCAASGRIFRRYAMGWYRQAPGKERELVAAITRSGGSTYYADSVKGRFTISRDNAKNTVYLQMNSLKPEDTAVYYCNAPSSLGTDYDYWGQGTQVTVSS | high polyreactivity
QVHLVESGGGLVQAGGSLRISCAASGSIFFPYAMGGYRQAPGKERELVAAISYSGTSTYYAASVKGRFTISRDNAKNTVYLQMNSLKPVDTAVYYCAAYSRYYASYDYWGQGTQVTVSS | high polyreactivity
QVHLVESGGGLVQAGGSLRLCCAASGRIFDHNTKGWYRQAPGKEMEFVAAITVSAGTTYYADSVKGRFTISSDNAKNTVYLQMNSLKPEDTAVYYCAAYYVYSYWDWGDYWGQGTQVTVSS | low polyreactivity
QVHLVESGGGLVQAGGSLRLICAASGGTLWVNTMGWYRQAPGKERELVAAISRRGGSTYYADSVKGRFTISRDNAKNTVYLQMNSLKPEDTAVYYCAKGYSSHYWWAYDSWGQGTQVTVSS | high polyreactivity
QVHLVESGGGLVQAGGSLRLICAASVFNLDWYVMGWNRQAPGKERQLVAAISSSGGRTYNADSVKGRFTISRDKAKNTVYLQMNSLKPEDTAVYYCAARNKYGGYPYGYDYWGQGTQVTVSS | high polyreactivity
QVHLVESGGGLVQAGGSLRLRCAASGIIYVRYAMGWYRHAPGKERELVAAISWSGGSTYYADSVKGRFTISRDNAKNTVYLQMNSLKPEDTAVYYCAADSHRTRGYARYFYWGQGTQVTVSS | high polyreactivity
QVHLVESGGGLVQAGGSLRLSCAASARTFTQNAMVWYRQAPGKERELVAAITRSGGSTYYADSVKGRFTISRDYAKNTVYLQMNSLKPEDTAVYYFIKYTHYYDYDYWGQGTQVTVSS | high polyreactivity
QVHLVESGGGLVQAGGSLRLSCAASASIFGSNAMGWYRQAPGKDRELVAAITWSDGSTYYADSVKGRFTISRDNAKNTVYLQMNSLKPDDTAVYYCSSDYGYSWYDYWGQGTQVTVSS | low polyreactivity
QVHLVESGGGLVQAGGSLRLSCAASGFIFPNNAMGWYRQAPGKERELVARISYGGGDTHYADSVKGRFTISRDNAKNTVYLQMNSLKPEDTAVSYCAVKDGQDDYWGQGTQVTVSS | low polyreactivity
QVHLVESGGGLVQAGGSLRLSCAASGFIFWGYAMGWYRPAPVHERELVAAISSDGDTYYADSVKGRFTISLDNAKNTVYLQMNCRKPEESAVYYCNADLYGGGDNSVISGLNGEYEYWGQGTQVTVSS | low polyreactivity
QVHLVESGGGLVQAGGSLRLSCAASGFLFDVYAMGWYRQAPGKERELVAAISRSGGSTYYADSVKGRFTISRDNAKNTVYLQMNSLKPEDTAVYYCATDLLNNVDYDYWGQGTQVTVSS | low polyreactivity
QVHLVESGGGLVQAGGSLRLSCAASGFPFADNAMGWNRQAPGKERELVAAISRRGGSTYYADSVKGRFTISRDNAKNTVYLQMNSLKAEDTAVYYCAALGNRYPYYYYYGSYYPVEYWGQGTQVTVSS | high polyreactivity
QVHLVESGGGLVQAGGSLRLSCAASGFTFIRYAMGWYRQAPGKEREFVAAISWRVGITYYADSVKGRFTISRDNAKNTVYLQMNSLKPEDTAVYYCARDYRNPPFAYEYWGQGTQVTVSS | low polyreactivity
QVHLVESGGGLVQAGGSLRLSCAASGFTFLVYAMRWYRKAPGKEREFVAAMNWSGDRTYYADSVKGLFTISREYAKNTVYLQMNSVKTEDTAVYYCAAVDYVYPQAYGYWGQGTQVTVSS | low polyreactivity
QVHLVESGGGLVQAGGSLRLSCAASGFTFRRYAMGWDRQAPGKERELVASISSGGSTNYADSVKGRCTISRDNAKNTVYLQMNSLIPEDTAVYYCAVSYRSFRYYWERYYSWGQGTQVTVSS | high polyreactivity
QVHLVESGGGLVQAGGSLRLSCAASGFTIYTYAMGGYRQAPGKERELVAAISSSGGSTSYADSVKGRFTISRDNAKITDYLQMNSLKPDDTALYYCNRGWRQQLGYWGQGTQVNVSS | high polyreactivity
